Tests used:
[1] = biological target: T1, kinesin-4ΔN (human kinesin-4, aa 733-1232) (human, UniProt O95239 733-1232); assay: pull-down
T1 sequence (looked up): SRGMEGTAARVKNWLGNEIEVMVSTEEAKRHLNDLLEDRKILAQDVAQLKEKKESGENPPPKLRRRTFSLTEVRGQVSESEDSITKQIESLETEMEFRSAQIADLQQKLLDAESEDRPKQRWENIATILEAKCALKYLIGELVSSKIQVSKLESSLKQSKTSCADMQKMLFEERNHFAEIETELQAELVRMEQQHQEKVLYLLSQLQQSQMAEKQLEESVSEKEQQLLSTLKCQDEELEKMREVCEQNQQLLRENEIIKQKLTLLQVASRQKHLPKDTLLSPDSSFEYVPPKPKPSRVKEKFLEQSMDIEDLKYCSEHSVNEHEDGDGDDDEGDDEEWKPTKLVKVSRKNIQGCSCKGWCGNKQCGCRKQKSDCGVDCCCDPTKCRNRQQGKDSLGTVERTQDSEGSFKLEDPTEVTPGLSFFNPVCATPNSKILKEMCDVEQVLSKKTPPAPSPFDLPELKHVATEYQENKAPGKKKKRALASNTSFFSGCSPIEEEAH

SEC = biological target: the molecule itself; assay: SEC

Kd [1]: 0.21 ± 0.01 µM
B1: PRC1ΔN1SΔC (human PRC1, aa 19-486) (domain or fragment, UniProt O43663 19-486, looked up)
chain: LNHLREIWELIGIPEDQRLQRTEVVKKHIKELLDMMIAEEESLKERLIKSISVCQKELNTLCSELHVEPFQEEGETTILQLEKDLRTQVELMRKQKKERKQELKLLQEQDQELCEILCMPHYDIDSASVPSLEELNQFRQHVTTLRETKASRREEFVSIKRQIILCMEALDHTPDTSFERDVVCEDEDAFCLSLENIATLQKLLRQLEMQKSQNEAVCEGLRTQIRELWDRLQIPEEEREAVATIMSGSKAKVRKALQLEVDRLEELKMQNMKKVIEAIRVELVQYWDQCFYSQEQRQAFAPFCAEDYTESLLQLHDAEIVRLKNYYEVHKELFEGVQKWEETWRLFLEFERKASDPNRFTNRGGNLLKEEKQRAKLQKMLPKLEEELKARIELWEQEHSKAFMVNGQKFMEYVAEQWEMHRLEKERAKQERQLKNKKQTETEMLYGSAPRTPSKRRGLAPNTPGKAR
stoichiometry N (SEC): 2
